Where two headings read alike, the source gives them in different places. Values belong to the molecule of their own block, whether it stands above or below them. Peptide text beside a SMILES is read from it. * marks the point of attachment. Palmitoyl = CCCCCCCCCCCCCCCC(=O)*
Columns and labels:
[1] = Pharmacokinetics of PAR1 pepducins in CF-1 mice, plasma LC/MS/MS; assay type: in vivo, mouse; conditions: 10 mg/kg s.c.
Experimental: FIG. 14 illustrates pharmacokinetics of PAR1 pepducins. (A): CF-1 mice were injected subcutaneously with P1pal-7 (3 mg/kg, open circles), P1pal-7 (10 mg/kg, closed circles), P1pal-10S (10 mg/kg, gray circles), or P1pal-i1-11 (10 mg/kg, open squares) in 20% dimethyl sulfoxide and blood was collected at indicated time points (n=3). Pepducin levels in plasma were quantified with LC/MS/MS. (B): Daily (D1 to D6) plasma levels of P1pal-7 after subcutaneous injection of 10 mg/kg P1pal-7 were measured at 1 hour (open circles) and 24 hours (open squares).
Pharmacokinetics of plasma levels of P1pal-7, P1pal-10S, and P1pal-i1-11 at 30 minutes, and at 1, 2, 4, 6, 8, and 16 hours was measured by LC/MS/MS to determine steady-state pepducin drug levels and the rate of elimination from mice. Subcutaneous injections of P1pal-7 (3 mg/kg or 10 mg/kg) into wild-type CF-1 mice (25 to 30 g) was followed by blood collection at various time points from the vena cava. […] Residual P1pal-7 levels were 10 nmol/L at the 16-hour time point. After the 4-hour plateau, the elimination rate was linear from 4 to 16 hours. The peak plasma level of 3 mg/kg P1pal-7 reached 0.6 μmol/L at 2 hours and elimination was linear between 2 hours and 16 hours. P1pal-10S (10 mg/kg) gave similar peak plasma level of 1.0 μmol/L as P1pal-7 (10 mg/kg) at 1 hour.
Lastly, the peak plasma level of P1pal-7 (10 mg/kg) was measured before and 1 hour after once-daily subcutaneous injection over 6 days to determine whether the peak plasma levels were consistent on daily administration.

A549 xenografts = assay type: in vivo, mouse
Experimental: (§1) FIG. 13 illustrates that monotherapy with PAR1-i3 pepducins inhibits tumor progression of A549 xenografts. (A) and (B): A549 mice treated with vehicle, P1pal-7, P1pal-i1-11, P1pal-10S, X1/2-i1, X1/2-i3, or Avastin. Each time point represents the mean±SE. (C): Final tumor volume at the completion of the experiment was calculated as a percentage of untreated vehicle control. (D): Serum-starved A549 adenocarcinoma cells were pretreated with P1pal-7, P1pal-10S, P1pal-i1-11, vehicle, or PD98059 and stimulated with thrombin. VEGF production was assessed by enzyme-linked immunosorbent assay. Data are expressed as mean±SD (*P<0.05, **P<0.01).
PAR1 expression level is correlated with reduced survival of patients with NSCLC. To define the relative importance of PAR1 in lung tumor progression, in vivo mouse models were used. […] An A549 lung adenocarcinoma xenograft model in nude mice was used to evaluate monotherapy with P1pal-7, P1pal-10S, P1pal-i1-11, or the VEGF antagonist Avastin.

VEGF-A production = assay: Thrombin-dependent VEGF-A production in A549 cells (ELISA); assay type: cell-based, human; conditions: A549, 18 hours thrombin treatment
Experimental: as §1
Because the i3-based P1pal-7 pepducin had similar efficacy as Avastin in suppressing lung tumor growth of A549 xenografts, VEGF-A production was measured in the A549 tumor cells after 18 hours thrombin treatment. […] Unlike in ovarian cancer, no increase was found in PAR1-mediated IL-8 production in A549 cells, consistent with the observed lack of efficacy of CXCR1/2 pepducins in the A549 xenograft models. These xenograft data provide support for the role of a novel PAR1-ERK1/2-VEGF paracrine pathway that is an effective therapeutic target in the A549 adenocarcinoma lung cancer model.

[2] = test system: A549, HOP62, and HOP92 lung carcinoma cell lines; assay: Cytotoxicity/cell viability of lung carcinoma cells (MIT assay); assay type: cell-based, human; conditions: 3-day period
PAR1 = biological target: T1, PAR1 (Homo sapiens, UniProt P25116); assay: ERK1/2 phosphorylation in A549 cells (thrombin or […]), Western blot; assay type: cell-based; set-up: endogenous in cells; host or cells: A549, HOP62, H1299, H522, H226, HOP92 lung carcinoma lines; conditions: A549 cells; pepducin 0.1-3 μM
T1 sequence (P25116 22-425): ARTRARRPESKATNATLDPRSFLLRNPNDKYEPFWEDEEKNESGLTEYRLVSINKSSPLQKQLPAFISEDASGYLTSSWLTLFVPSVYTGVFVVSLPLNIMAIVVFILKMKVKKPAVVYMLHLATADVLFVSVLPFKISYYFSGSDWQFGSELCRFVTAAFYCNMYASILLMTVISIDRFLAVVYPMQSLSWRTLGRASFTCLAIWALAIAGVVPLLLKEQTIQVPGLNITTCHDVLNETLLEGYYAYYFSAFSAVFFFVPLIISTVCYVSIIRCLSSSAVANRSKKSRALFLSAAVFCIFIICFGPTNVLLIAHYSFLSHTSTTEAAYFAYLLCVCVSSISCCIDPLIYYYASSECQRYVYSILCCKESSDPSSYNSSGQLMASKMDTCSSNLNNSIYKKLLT
Experimental: FIG. 9 illustrates that differential inhibition of PAR1-ERK activation by i3- and i1-derived PAR1 pepducins. (A-C): Western blots of lysates from A549 cells untreated, or treated with thrombin, SLIGKV (SEQ ID NO:29), or AYPGKF (SEQ ID NO:5). Indicated samples were pretreated with various concentrations (0.1 to 3 μmol/L) of P1pal-7, P1pal-10S, or P1pal-i1-11 before stimulation and immunoblotted with anti-phospho-ERK. (D-F): Quantification of the Western blots in (A-C) were conducted by densitometry and results are expressed relative to maximum (fold max) phosphorylation of pERK.
(B): A549 cells stimulated with 10 μM […] over 2 h. A549 cells pretreated with 0.1 μM P1pal-7 and stimulated with 10 μM […] (SEQ ID NO:30) for 5 min. Total ERK was used as a loading control.
Last, there has been a great deal of interest in understanding the mechanism of PAR1-mediated activation of MAP kinase cascade and PAR1-dependent cellular growth and differentiation, proliferation and gene transcription. […] The effects of i1 versus i3 PAR1 pepducins on ERK1/2 activation were examined in the A549 lung adenocarcinoma cell line. […] Inhibition experiments with a range of pepducin concentrations (0.1-3 μM) were conducted. […] The […] (SEQ ID NO:30) peptide gave a rapid and transient ERK1/2 phosphorylation signal that peaked at 5-15 min after stimulation. […] To determine the specificity of the PAR1 pepducin inhibitors, their effects on the closely related PAR2 and PAR4 receptors were also tested.

PAR2 [3] = biological target: T2, PAR2 (Homo sapiens, UniProt P55085); assay: Antagonist | (% inhibition); set-up: SW620 colon adenocarcinoma cells that endogenously express PAR2; endogenous in cells; host or cells: SW620 (in A7 the SW620 cells were additionally stably transfected with PAR1); conditions: 6 µM
Experimental: (§2) (A) Agonist and antagonist activity of third intracellular (i3) loop PAR2 pepducins (structure shown on top) using calcium flux assays with SW620 colon adenocarcinoma cells that endogenously express PAR2. Each column of three calcium flux traces corresponds to the i3 pepducin sequence shown above. The top row is the agonist activity of 3-4 μM pepducin and the middle row is the agonist activity of 14-15 μM pepducin. […] Final concentration of DMSO vehicle was 0.2%. […] (C) Agonist activity for each pepducin from (A) is reported as initial velocity of calcium flux at 4 μM pepducin (†), or at 14-15 μM pepducin (‡).

PAR2 [4] = biological target: T2, PAR2; assay: Agonist | (%)^†; set-up: SW620 colon adenocarcinoma cells that endogenously express PAR2; endogenous in cells; host or cells: SW620 (in A7 the SW620 cells were additionally stably transfected with PAR1); conditions: 4 µM
Experimental: as §2

PAR2 [5] = biological target: T2, PAR2; assay: Agonist | (%)^‡; set-up: SW620 colon adenocarcinoma cells that endogenously express PAR2; endogenous in cells; host or cells: SW620 (in A7 the SW620 cells were additionally stably transfected with PAR1)
PAR2 [6] = biological target: T2, PAR2; assay: Calcium flux screen for PAR2 pepducin agonist and antagonist activity in SW620 cells; assay type: cell-based; set-up: SW620 colon adenocarcinoma cells that endogenously express PAR2; endogenous in cells; host or cells: SW620 (in A7 the SW620 cells were additionally stably transfected with PAR1); conditions: for Antagonist activity (inhibition of SLIGRL calcium flux, area under the curve): 6 μM pepducin, 1 min pretreatment, against 100 μM SLIGRL; for Agonist activity (calcium flux): 3-4 μM and 14-15 μM pepducin
Experimental: as §2

Clearance / plasma half-life in words [1]: rapid clearance after 1 hour | Tmax ([1]; CF-1, mouse, plasma, sc, read-out: Time of peak plasma level): 1 h | Cmax ([1]; mouse, plasma, sc, CF-1 mice, read-out: Peak plasma level): 1000 nM | Effect on thrombin-induced ERK1/2 phosphorylation (PAR1): complete inhibition
Molecule: CCCCCCCCCCCCCCCC(=O)N[C@@H](CC(N)=O)C(=O)N[C@@H](CCCNC(=N)N)C(=O)N[C@@H](CO)C(=O)N[C@@H](CCCCN)C(=O)N[C@@H](CCCCN)C(=O)N[C@@H](CO)C(=O)N[C@@H](CO)C(=O)N[C@@H](C)C(=O)N[C@@H](CC(C)C)C(=O)N[C@@H](Cc1ccccc1)C(N)=O [P1pal-10S] (Palmitoyl-NRSKKSSALF-NH2)
Inhibition of tumor progression/growth (final tumor volume vs vehicle) (A549 xenografts; mouse, in vivo): 40% | Effect on thrombin-dependent VEGF-A production (VEGF-A production): partially blocked | Sensitivity of A549 cells (cytotoxicity) [2]: most sensitive

Molecule: COc1cccc(-c2cc(=O)c3ccccc3o2)c1N [PD98059, reference compound]
Effect on thrombin-dependent VEGF-A production (VEGF-A production): could suppress

Molecule: Avastin: VEGF antibody; VEGF antagonist [reference compound]
Inhibition of tumor progression/growth (final tumor volume vs vehicle) (A549 xenografts; monotherapy, nude mice): 75%

Antagonist | (% inhibition) (PAR2 [3]): 0 % inhibition | Agonist | (%)^† (PAR2 [4]): 3% | Agonist | (%)^‡ (PAR2 [5]): 8%
Molecule: P2pal-14GF: N-terminally truncated palmitoylated PAR2 pepducin, M274 to G and K287 to F; SEQ ID NO:23 (Palmitoyl-GDENSEKKRKRAIF-NH2) [listing 1 of 2 here]

Agonist activity (calcium flux) (PAR2 [6]): no significant agonist
Molecule: P2pal-14GF: N-terminally truncated palmitoylated PAR2 pepducin, M274 to G and K287 to F; SEQ ID NO:23 (Palmitoyl-GDENSEKKRKRAIF-NH2) [listing 2 of 2 here]
Antagonist activity (inhibition of SLIGRL calcium flux, area under the curve) (PAR2 [6]): no significant agonist or any detectable antagonist activity

Antagonist | (% inhibition) (PAR2 [3]): 0 % inhibition | Agonist | (%)^† (PAR2 [4]): 5% | Agonist | (%)^‡ (PAR2 [5]): 35%
Molecule: P2pal-18F: palmitoylated PAR2 pepducin, K287 to F, first three residues (R267, M268, L269) deleted; SEQ ID NO:19 (Palmitoyl-RSSAMDENSEKKRKRAIF-NH2) [listing 1 of 2 here]

Antagonist activity (inhibition of SLIGRL calcium flux, area under the curve) (PAR2 [6]): devoid of antagonist activity
Molecule: P2pal-18F: palmitoylated PAR2 pepducin, K287 to F, first three residues (R267, M268, L269) deleted; SEQ ID NO:19 (Palmitoyl-RSSAMDENSEKKRKRAIF-NH2) [listing 2 of 2 here]
Agonist activity (calcium flux) (PAR2 [6]): slight decrease in agonist activity at lower concentration

Agonist | (%)^‡ (PAR2 [5]): 16%
Molecule: P2pal-18Q: palmitoylated PAR2 pepducin, R284 replaced by glutamine; SEQ ID NO:22 (Palmitoyl-RSSAMDENSEKKRKQAIK-NH2) [listing 1 of 2 here]

Agonist activity (calcium flux) (PAR2 [6]): nearly no agonist activity
Molecule: P2pal-18Q: palmitoylated PAR2 pepducin, R284 replaced by glutamine; SEQ ID NO:22 (Palmitoyl-RSSAMDENSEKKRKQAIK-NH2) [listing 2 of 2 here]

Antagonist | (% inhibition) (PAR2 [3]): 57 % inhibition | Agonist | (%)^† (PAR2 [4]): 8% | Agonist | (%)^‡ (PAR2 [5]): 30%
Molecule: P2pal-18SF: palmitoylated PAR2 pepducin, R284 to S and K287 to F; SEQ ID NO:21 (Palmitoyl-RSSAMDENSEKKRKSAIF-NH2) [listing 1 of 2 here]

Agonist activity (calcium flux) (PAR2 [6]): restored agonist activity
Molecule: P2pal-18SF: palmitoylated PAR2 pepducin, R284 to S and K287 to F; SEQ ID NO:21 (Palmitoyl-RSSAMDENSEKKRKSAIF-NH2) [listing 2 of 2 here]

From US10913781B2, “Pepducin design and use” (Tufts Medical Center, Inc., priority 2011, dated 2021)
